# Experimental data as given in publication PMC2953525, “Subtle Alterations in PCNA-Partner Interactions Severely Impair DNA Replication and Repair” (PLoS Biology, 2010).
# Where no end group is shown, it is not given here.
# Assays:
# [1] = target: T1, pol30-Ung1E3, 6×Histidine-tagged (yeast, UniProt P15873 1-258, IDCL DIDADFLKIEEL to DFDYDELKIEEL); assay: SPR; ProteOn XPR36; WT or mutant PCNA (0.4 to 5.2 fmol) immobilised on a GLM chip by carbodiimide-activated succinimide coupling; PIP peptides 5–5,000 nM at 30 µl/min; peptide buffer 150 mM NaCl, 1 mM EDTA, 0.01% Tween-80, 30 mM Hepes, pH 7.5; conditions: both partners purified
# T1 construct: PCNA (POL30), yeast, in pET28; source: E. coli BL21, in cleared crude lysate (ELISA); purified by Ni-NTA (SPR)
# T1 sequence: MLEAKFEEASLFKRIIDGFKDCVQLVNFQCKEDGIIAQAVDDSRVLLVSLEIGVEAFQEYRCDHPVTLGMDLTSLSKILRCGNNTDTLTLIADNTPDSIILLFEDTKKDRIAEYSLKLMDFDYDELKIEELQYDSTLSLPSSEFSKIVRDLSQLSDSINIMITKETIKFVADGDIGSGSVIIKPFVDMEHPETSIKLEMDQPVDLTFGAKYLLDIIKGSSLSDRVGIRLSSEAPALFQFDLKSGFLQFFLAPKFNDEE
# [2] = target: T2, pol30-Msh6E6, 6×Histidine-tagged (yeast, UniProt P15873 1-258, IDCL DIDADFLKIEEL to DYDKDLLKIIEL); assay: as above; conditions: both partners purified
# T2 construct: PCNA (POL30), yeast, in pET28; source: E. coli BL21, in cleared crude lysate (ELISA); purified by Ni-NTA (SPR)
# T2 sequence: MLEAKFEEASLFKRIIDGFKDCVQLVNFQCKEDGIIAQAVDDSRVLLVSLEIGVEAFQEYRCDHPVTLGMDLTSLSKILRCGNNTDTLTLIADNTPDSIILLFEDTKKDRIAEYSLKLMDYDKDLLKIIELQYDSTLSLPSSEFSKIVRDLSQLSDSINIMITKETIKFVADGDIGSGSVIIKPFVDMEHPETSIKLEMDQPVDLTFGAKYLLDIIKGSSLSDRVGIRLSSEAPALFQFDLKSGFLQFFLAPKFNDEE
Binder,fold increase in binding affinity relative to WT PCNA (SPR) [1],fold increase in binding affinity relative to WT PCNA (SPR) [2]
"QTTIEDFF (also: biotinylated, site not given here) [PIP peptide derived from Ung1]",3.5 fold,–
"QSSLLSFF (also: biotinylated, site not given here) [PIP peptide derived from Msh6]",–,1.6 fold
